From patent US20110287512

Assays:
[1] = test system: ZFN7264 (host, center linker TGSQKP) (synthetic); assay: cell_activity; details: yeast, partner ZFN7263; host on 0-bp gap = 1.00; host data same as Table 9
[2] = test system: ZFN7264 linker TSRPRPKP (artificial); assay: cell_activity; details: yeast, paired with 7263 ZFN
[3] = test system: ZFN7264 linker TGGGGSQKP (artificial); assay: cell_activity; details: yeast, paired with 7263 ZFN
[4] = test system: ZFN7264 linker TGLPKPKP (artificial); assay: cell_activity; details: yeast, paired with 7263 ZFN
[5] = test system: ZFN7264 linker 1e (artificial); assay: cell_activity; details: yeast, paired with 7263 ZFN
[6] = test system: ZFN7263 linker TGGGGSQKP (artificial); assay: cell_activity; details: yeast, paired with 7264 ZFN
[7] = test system: ZFN7263 linker TPLCQRPMKQKP (artificial); assay: cell_activity; details: yeast, paired with 7264 ZFN
[8] = test system: ZFN7263 (host) (artificial); assay: cell_activity; details: yeast, paired with 7264 ZFN
[9] = test system: ZFN7263 linker TQRPQIPPKP (artificial); assay: cell_activity; details: yeast, paired with 7264 ZFN
[10] = test system: ZFN7263 linker TPNRCPPTKP (artificial); assay: cell_activity; details: yeast, paired with 7264 ZFN
[11] = test system: ZFN7263 linker TPRPPIPKP (artificial); assay: cell_activity; details: yeast, paired with 7264 ZFN
[12] = test system: ZFN7263 linker TYPRPLLAKP (artificial); assay: cell_activity; details: yeast, paired with 7264 ZFN
[13] = test system: ZFP8196 linker TSPRLPAPKP (artificial)
[14] = test system: ZFP8196 linker TEPRAKPPKP (artificial)
[15] = test system: ZFP8196 linker 1c (artificial)
[16] = test system: ZFP8196 linker LRQKDERP (artificial)
[17] = test system: ZFP8196 linker TPDAPKPKP (artificial)
[18] = test system: ZFP8196 linker TCPRPPTRKP (artificial)
[19] = test system: ZFP8196 linker TSSPRSNAKP (artificial)
[20] = test system: ZFP8196 (host, center linker TGEKP) (artificial)
[21] = test system: ZFP8196 linker TGEGGKP (artificial)
[22] = test system: ZFP8196 linker 1d (artificial)
[23] = test system: ZFP8196 linker TPDRPISTCKP (artificial)
[24] = test system: ZFP8196 linker TVSPAPCRSKP (artificial)
[25] = test system: ZFP8196 linker TGGGGSQKP (artificial)
[26] = test system: ZFP8196 linker TPSHTPRPKP (artificial)
[27] = test system: ZFP8196 linker TPGLHRPKP (artificial)
[28] = test system: ZFP8196 linker TGYSIPRPKP (artificial)
[29] = test system: ZFP8196 linker 1f center linker F2-F3 TGEKP replaced by TYPRPIAAKP (artificial); assay: ELONA; details: normalized ELISA score
[30] = test system: ZFP7263 linker TQRPQIPPKP (artificial)
[31] = test system: ZFP7263 linker TGEGGKP (artificial)
[32] = test system: ZFP7263 (host, center linker TGSQKP) (artificial)
[33] = test system: ZFP7263 linker LRQKDERP (artificial)
[34] = test system: ZFP7263 linker TGGGGSQKP (artificial)
[35] = test system: ZFP7263 linker TPRPPIPKP (artificial)
[36] = test system: ZFP7263 linker TPNRCPPTKP (artificial)
[37] = test system: ZFP7263 linker TPLCQRPMKQKP (artificial)
[38] = test system: ZFP7263 linker TYPRPLLAKP center linker F2-F3 TGSQKP replaced by TYPRPLLAKP (artificial); assay: ELONA; details: normalized ELISA score
[39] = test system: ZFP7264 linker TGEGGKP (artificial)
[40] = test system: ZFP7264 linker TKHGTPKHREDKP (artificial)
[41] = test system: ZFP7264 linker TGGGGSQKP (artificial)
[42] = test system: ZFP7264 (host, center linker TGSQKP) (artificial)
[43] = test system: ZFP7264 linker TGLPKPKP (artificial)
[44] = test system: ZFP7264 linker TLPLPRPKP (artificial)
[45] = test system: ZFP7264 linker TSRPRPKP (artificial)
[46] = test system: ZFP7264 linker LRQKDERP (artificial)
[47] = test system: ZFP7264 linker TLPPCFRPKP (artificial)
[48] = test system: ZFP7264 linker 1e center linker F2-F3 TGSQKP replaced by TVPRPTPPKP (artificial); assay: ELONA; details: normalized ELISA score

Sequence: AAAGCGAGCTCCG (double strand) [7264 yeast half-site gap A]
- activity (normalized MEL-1) [1]: 0.05
- activity (normalized MEL-1) [2]: 0.18
- activity (normalized MEL-1) [3]: 0.08
- activity (normalized MEL-1) [4]: 0.08
- activity (normalized MEL-1) [5]: 1.24

Sequence: AAAGCGCGCTCCG (double strand) [7264 yeast half-site gap C]
- activity (normalized MEL-1) [1]: 0.05
- activity (normalized MEL-1) [2]: 0.08
- activity (normalized MEL-1) [3]: 0.07
- activity (normalized MEL-1) [4]: 0.07
- activity (normalized MEL-1) [5]: 0.14

Sequence: AAAGCGGGCTCCG (double strand) [7264 yeast half-site gap G]
- activity (normalized MEL-1) [1]: 0.09
- activity (normalized MEL-1) [2]: 0.61
- activity (normalized MEL-1) [3]: 0.14
- activity (normalized MEL-1) [4]: 0.42
- activity (normalized MEL-1) [5]: 1.4

Sequence: AAAGCGTTGCTCCG (double strand) [7264 yeast half-site gap TT]
- activity (normalized MEL-1) [1]: 0.09
- activity (normalized MEL-1) [2]: 0.03
- activity (normalized MEL-1) [3]: 0.12
- activity (normalized MEL-1) [4]: 0.11
- activity (normalized MEL-1) [5]: 0.12

Sequence: ACTCTGACTGGAAG (double strand) [7263 yeast half-site gap AC]
- activity (normalized MEL-1) [6]: 0.04
- activity (normalized MEL-1) ([7]; value as printed): 1.05
- activity (normalized MEL-1) [8]: 0.09
- activity (normalized MEL-1) [9]: 0.03
- activity (normalized MEL-1) [10]: 0.04
- activity (normalized MEL-1) [11]: 0.05
- activity (normalized MEL-1) [12]: 0.1

Sequence: ACTCTGATGGAAG (double strand) [7263 yeast half-site gap A]
- activity (normalized MEL-1) [6]: 0.14
- activity (normalized MEL-1) [7]: 0.97
- activity (normalized MEL-1) [8]: 0.05
- activity (normalized MEL-1) [9]: 1.05
- activity (normalized MEL-1) [10]: 1.3
- activity (normalized MEL-1) [11]: 1.3
- activity (normalized MEL-1) [12]: 0.69

Sequence: ACTCTGCTGGAAG (double strand) [7263 yeast half-site gap C]
- activity (normalized MEL-1) [6]: 0.04
- activity (normalized MEL-1) [7]: 0.3
- activity (normalized MEL-1) [8]: 0.05
- activity (normalized MEL-1) [9]: 0.43
- activity (normalized MEL-1) [10]: 0.34
- activity (normalized MEL-1) [11]: 1.41
- activity (normalized MEL-1) [12]: 0.37

Sequence: ACTCTGGTGGAAG (double strand) [7263 yeast half-site gap G]
- activity (normalized MEL-1) [6]: 0.6
- activity (normalized MEL-1) [7]: 1.52
- activity (normalized MEL-1) [8]: 0.09
- activity (normalized MEL-1) [9]: 2.18
- activity (normalized MEL-1) [10]: 2.85
- activity (normalized MEL-1) [11]: 2.18
- activity (normalized MEL-1) [12]: 2.21

Sequence: TTAGATAAACTGACAAAAGGCTATC (double strand) [8196 target gap A]
- binding signal (normalized ELISA) [13]: 0.26
- binding signal (normalized ELISA) [14]: 0.39
- binding signal (normalized ELISA) [15]: 0.2
- binding signal (normalized ELISA) [16]: 0.01
- binding signal (normalized ELISA) [17]: 0.16
- binding signal (normalized ELISA) [18]: 0.18
- binding signal (normalized ELISA) [19]: 0.05
- binding signal (normalized ELISA) [20]: 0.01
- binding signal (normalized ELISA) [21]: 0
- binding signal (normalized ELISA) [22]: 0.23
- binding signal (normalized ELISA) [23]: 0.11
- binding signal (normalized ELISA) [24]: 0.03
- binding signal (normalized ELISA) [25]: 0
- binding signal (normalized ELISA) [26]: 0.3
- binding signal (normalized ELISA) [27]: 0.19
- binding signal (normalized ELISA) [28]: 0.13
- binding signal [29]: 0.41

Sequence: TTAGATAAACTGCCAAAAGGCTATC (double strand) [8196 target gap C]
- binding signal (normalized ELISA) [13]: 0.14
- binding signal (normalized ELISA) [14]: 0.17
- binding signal (normalized ELISA) [15]: 0.09
- binding signal (normalized ELISA) [16]: 0.01
- binding signal (normalized ELISA) [17]: 0.13
- binding signal (normalized ELISA) [18]: 0.05
- binding signal (normalized ELISA) [19]: 0.02
- binding signal (normalized ELISA) [20]: 0.01
- binding signal (normalized ELISA) [21]: 0
- binding signal (normalized ELISA) [22]: 0.09
- binding signal (normalized ELISA) [23]: 0.05
- binding signal (normalized ELISA) [24]: 0.01
- binding signal (normalized ELISA) [25]: 0
- binding signal (normalized ELISA) [26]: 0.13
- binding signal (normalized ELISA) [27]: 0.1
- binding signal (normalized ELISA) [28]: 0.06
- binding signal [29]: 0.14

Sequence: TTAGATAAACTGGCAAAAGGCTATC (double strand) [8196 target gap G]
- binding signal (normalized ELISA) [13]: 0.62
- binding signal (normalized ELISA) [14]: 0.78
- binding signal (normalized ELISA) [15]: 0.57
- binding signal (normalized ELISA) [16]: 0.04
- binding signal (normalized ELISA) [17]: 0.68
- binding signal (normalized ELISA) [18]: 0.48
- binding signal (normalized ELISA) [19]: 0.2
- binding signal (normalized ELISA) [20]: 0.03
- binding signal (normalized ELISA) [21]: 0.03
- binding signal (normalized ELISA) [22]: 0.52
- binding signal (normalized ELISA) [23]: 0.29
- binding signal (normalized ELISA) [24]: 0.14
- binding signal (normalized ELISA) [25]: 0
- binding signal (normalized ELISA) [26]: 0.84
- binding signal (normalized ELISA) [27]: 0.65
- binding signal (normalized ELISA) [28]: 0.43
- binding signal [29]: 0.65

Sequence: TTAGCCACTCTGATGGAAGTGTATC (double strand) [7263 target gap A]
- binding signal (normalized ELISA) [30]: 1.66
- binding signal (normalized ELISA) [31]: 0.02
- binding signal (normalized ELISA) [32]: 0.01
- binding signal (normalized ELISA) [33]: 0.03
- binding signal (normalized ELISA) [34]: 0.06
- binding signal (normalized ELISA) [35]: 0.97
- binding signal (normalized ELISA) [36]: 1.68
- binding signal (normalized ELISA) [37]: 1.82
- binding signal [38]: 1.95

Sequence: TTAGCCACTCTGCTGGAAGTGTATC (double strand) [7263 target gap C]
- binding signal (normalized ELISA) [30]: 1
- binding signal (normalized ELISA) [31]: 0.02
- binding signal (normalized ELISA) [32]: 0.01
- binding signal (normalized ELISA) [33]: 0.02
- binding signal (normalized ELISA) [34]: 0.05
- binding signal (normalized ELISA) [35]: 0.67
- binding signal (normalized ELISA) [36]: 1.13
- binding signal (normalized ELISA) [37]: 1.28
- binding signal [38]: 1.27

Sequence: TTAGCCACTCTGGTGGAAGTGTATC (double strand) [7263 target gap G]
- binding signal (normalized ELISA) [30]: 2.86
- binding signal (normalized ELISA) [31]: 0.05
- binding signal (normalized ELISA) [32]: 0.03
- binding signal (normalized ELISA) [33]: 0.18
- binding signal (normalized ELISA) [34]: 0.41
- binding signal (normalized ELISA) [35]: 1.85
- binding signal (normalized ELISA) [36]: 2.62
- binding signal (normalized ELISA) [37]: 3.44
- binding signal [38]: 3.88

Sequence: TTAGTTAAAGCGAGCTCCGAATATC (double strand) [7264 target gap A]
- binding signal (normalized ELISA) [39]: 0.02
- binding signal (normalized ELISA) [40]: 0.01
- binding signal (normalized ELISA) [41]: 0.07
- binding signal (normalized ELISA) [42]: 0
- binding signal (normalized ELISA) [43]: 0.19
- binding signal (normalized ELISA) [44]: 0.58
- binding signal (normalized ELISA) [45]: 0.52
- binding signal (normalized ELISA) [46]: 0.05
- binding signal (normalized ELISA) [47]: 0.72
- binding signal [48]: 2.35

Sequence: TTAGTTAAAGCGCGCTCCGAATATC (double strand) [7264 target gap C]
- binding signal (normalized ELISA) [39]: 0.03
- binding signal (normalized ELISA) [40]: 0.01
- binding signal (normalized ELISA) [41]: 0.04
- binding signal (normalized ELISA) [42]: 0
- binding signal (normalized ELISA) [43]: 0.11
- binding signal (normalized ELISA) [44]: 0.25
- binding signal (normalized ELISA) [45]: 0.22
- binding signal (normalized ELISA) [46]: 0.03
- binding signal (normalized ELISA) [47]: 0.25
- binding signal [48]: 1.02

Sequence: TTAGTTAAAGCGGGCTCCGAATATC (double strand) [7264 target gap G]
- binding signal (normalized ELISA) [39]: 0.05
- binding signal (normalized ELISA) [40]: 0.01
- binding signal (normalized ELISA) [41]: 0.08
- binding signal (normalized ELISA) [42]: 0
- binding signal (normalized ELISA) [43]: 0.38
- binding signal (normalized ELISA) [44]: 0.85
- binding signal (normalized ELISA) [45]: 0.77
- binding signal (normalized ELISA) [46]: 0.06
- binding signal (normalized ELISA) [47]: 0.77
- binding signal [48]: 1.58
